In patent US20250270302A1:

Experiments:
[1] = molecular target: human Gremlin-1 (huGREM1), recombinant protein (human) (UniProt O60565); assay: cell-based or functional assay
[2] = molecular target: human Gremlin-1 (huGREM1), recombinant protein (human) (UniProt O60565); assay: binding ELISA on huGREM1, hybridoma clone selection

UniProt O60565, sequence (O60565 25-184 limits assumed): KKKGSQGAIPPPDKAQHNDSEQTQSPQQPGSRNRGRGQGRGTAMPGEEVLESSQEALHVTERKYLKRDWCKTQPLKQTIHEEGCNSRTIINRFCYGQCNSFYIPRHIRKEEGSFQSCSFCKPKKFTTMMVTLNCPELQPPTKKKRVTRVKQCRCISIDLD

EC50, in vitro Gremlin-1 neutralization assay (ALP activity in ATDC5 cells) [1]: 26.4 nM
OD 492 nm [2]: > 0.9 OD 492 nm
B1: anti-Gremlin-1 antibody 14-D10-2 (antibody, from a related filing, IgG2b, V domains shown)
VH: EVQLQQSGPELVKPGASVKISCKASGYSFTGYYMHWVKQSHGNILDWIGYFFPYNGFSNCNQKFKGKATLTVDKSSSTAYMELRSLTSEDSAVYYCARGGLGRGYFDVWGTGTTVTVSS
VL: DIQMTQSPSYLSVSLGGRVTITCKASDHINNWLAWYQQKPGNAPRLLISGATSLETGVPSRFSGSGSGKDYTLSITSLQTEDVATYYCQQYWSSPRTFGGGTKLEIK
